Assay results from article PMC3870462 (Chemistry & biology, 2013).
Where two headings read alike, the source gives them in different places.

Key:
[1] = target: Avitag-CurG ACP-dd (Moorea producens); assay: BLI
[2] = target: CurG ACP-dd (Moorea producens); assay: fluorescence polarisation
[3] = target: CurK ACP-dd (Moorea producens); assay: fluorescence polarisation
[4] = target: CurK ACP-dd E2224R (Moorea producens); assay: fluorescence polarisation
[5] = target: CurK ACP-dd E2224R (Moorea producens); assay: fluorescence polarisation; remark: listed apart in the source
[6] = target: CurH ACP-dd (Moorea producens); assay: fluorescence polarisation
[7] = target: CurI dd-KS-AT dimer (Moorea producens); assay: SEC
[8] = target: CurK-CurL ^ACPddK-G3SG3S-ddL^KS (Moorea producens)
[9] = target: CurL dd^KS (Moorea producens); assay: crystal structure
[10] = target: CurL ACP-dd (Moorea producens); assay: fluorescence polarisation
[11] = target: PikAIIID-^ACPddG (not stated | Moorea producens)
[12] = target: the molecule itself
[13] = target: the molecule itself; assay: crystal structure

Work on CurH dd-KS-AT (domain or fragment) yielded a Kd [1] of 16.5 µM, a Kd [2] of 15.7 µM and a Kd [3] of 23.7 µM. It also gave a Kd [4] of 9.2 µM and a Kd [5] of 10 µM.

For “CurH dd-KS-AT lacking helix αA and the dd^KS loop (domain or fragment)”, the Kd [2] was 117 µM.

Molecule CurI dd-KS-AT (domain or fragment) has a Kd [6] of 20.5 µM.

In the case of “CurI dd-KS-AT dimer (domain or fragment)”, the stoichiometry N [7] is reported as 2 and the Kd [6] is reported as 9.4 µM.

Molecule CurK-CurL ^ACPddK-G3SG3S-ddL^KS has a stoichiometry N [8] of 2.

Molecule CurL dd^KS (domain or fragment) has a stoichiometry N [9] of 2.

For CurM dd-KS-AT (domain or fragment), the Kd [3] was 52 µM and the Kd [10] was 5.4 µM.

In the case of ddH^KS-PikAIV (enzyme), the 10-deoxymethynolide (10-dml) produced, percent of wild type PikAIII/PikAIV [11] is reported as 188%, the narbonolide (nbl) produced, percent of wild type PikAIII/PikAIV [11] is reported as 70% and the pentaketide substrate consumed in the PikAIII/PikAIV two-module reaction [11] is reported as 86%.

B1: CurG-CurH ^ACPddG-G3SG3S-ddH^KS (other, Moorea producens)
chain: LEAKLLDEIKQSSNQELESSIDQILESIINGGGSGGGSMLNKFTKKEQILSEKQQIKQLSPLQRAALALKKLETKLNNTLHE
For B1, the “stoichiometry N” value [12] was 2.

B2: CurL dd-KS-AT (domain or fragment, Moorea producens)
chain: MNLKQEQEKEQSLSALQRALIALKDARSKLEKYETQSKEPIAIIGMSCRFPGGVDSPESFWQLLNDGVDAISEVPSNRWNINNYYDPDPDATGKISTRDGGFLSQIDGFDAPFFCISPREVQSLDPQQRLLLEVSWEAIERANIVPDQLFNSLTGVFIGIGSSDYLNQLATSEVPQAYWGTGNAPSAATGRLSYILGLTGPNLAVETACSSSLVSLHLACQSLRQQECNLALAGGVNLLLSPETSIIFSQAKMLSPDGRCKTFDASANGYVRGEGCGVIVLKRLSDAVANGDNVLAVIRGTAINQDGASGGLTVPNGPSQVAVIRKALSNGGVDPASVSYIEAHGTGTSLGDPIEVGAIGTVFGKTHSQEQPLIVGTAKTNIGHLEVAAGIAGLMKVVLQLQHQQIAPSLHFKQPNPYINWSQLPVQVSTQLTPWQTNGKSRIAGVSSFGFSGTNAHVVIEEAPKEGNSLSATVEENGNSTVKEDTLERAVYLLTLSAKTQAALDDLVNSYQNYLKNYPELRIADICYTANTCRSHFNNRLAVVASNQQELVEKLRQHQQGEEVTGIYSIELPNNSTAPKIALLFTGQGSQYVNMGRQLYQQAPVFRKALEQCNEILLGTETFREKSLLEILYPANQEQSNSSLLDQTAYTQPCLFALEYALFKLWQSWGIQPDVVMGHSVGEYVAATVAGVFSLEEGLKLIAARGRLMQQLPAGGEMVSVIASESKVLEIFKAMSLEEKVAIAAINGPESTVISGEAEAVGAIATHLESLSIKTKQLQVSHAFHSRLMEPMLAEFEAVAKQVTYSQPQISLISNVTGQQVGSEITSAEYWVNHVRQPVRFSESMTTLHQEGYELFLEIGPKPILLGMGRQCLPEGVGVWLPSLRPGVEAWQQMLQSLGQLYMKGIKVNWSGFDQDYACHKVAIPTYPFQRESYWIDT
In the case of B2, the “stoichiometry N” value [13] is reported as 2 and the Kd [3] is reported as 4.5 µM.
